Patent publication US20090111769A1, “Antithrombotic Compound” (priority 2005, published 2009)
Structures can show the parent of a compound that is named as a salt.

Experiments:
[1] = system: human platelet aggregation induced by ADP; assay: In vitro test for inhibition of human platelet aggregation induced by ADP (platelet rich plasma); type: cell-based; details: read-out: IC50, inhibition of human platelet aggregation induced by 5 μM ADP
Experimental: • 1. Sysmex blood cell counter model KX-21. • 2. […] Absorption is measured with the Labsystems iEMS program. • 3. Blood collection system 600 mL with needle, art P4203 (NPBI). • 4.
The optical density (OD620) is then measured at 620 nm. […] This is to verify the stability of the platelets (absence of spontaneous platelet aggregation). […] Between two measurements, the plate is shaking for 40 seconds at 1,000 rpm. Each test compound is investigated in at least 2 experiments using PRP from different volunteers.
The mean OD at each compound concentration (including vehicle) is calculated at t=0 min and t=10 min. The percentage inhibition at each concentration is calculated using the formula: […]

[2] = system: human platelet aggregation induced by TRAP; assay: In vitro test for inhibition of human platelet aggregation induced by TRAP (washed platelets); type: cell-based; details: read-out: IC50, inhibition of human platelet aggregation induced by 5 μM TRAP
Experimental: This aggregation can be determined by measuring the optical density of the WPL. The in vitro test described here is used to analyze the activity of a test compound to inhibit TRAP-induced aggregation of human platelets. […] Between two measurements, the plate is shaking for 40 seconds at 1,000 rpm.

[3] = Pharmacokinetics after s.c. administration in rat (plasma concentration by anti-Xa activity); type: in vivo, male Wistar rats; details: male, Wistar, sc, 500 nmol/kg
Experimental: The pharmacokinetic properties of compound 3 were studied in male Wistar rats of 300-400 gr. The rats were anaesthetized by inhalation of a mixture of O2/N2O/isoflurane, after which the right jugular vein was cannulated. The next day rats were treated s.c. with doses of 100 or 500 nmol/kg. After s.c. administration, blood was sampled at several time intervals. Then the blood was centrifuged after which the plasma was siphoned off and stored at −20° C. until use. The concentration of the tested compound was measured amidolytically with S2222 (Chromogenix, Chromogenics Ltd, Molndal, Sweden) by determination of the anti-Xa activity based on the method of Teien and Lie in the obtained plasma samples against a calibration curve which was made of the stock solution of the tested compound itself. (Teien A N, Lie M. Evaluation of an amidolytic heparin assay method increased sensitivity by adding purified antithrombin III. Thromb. Res. 1977, 10: 399-410). The concentration in the samples was expressed in nmol/mL and the kinetic parameters were calculated with the noncompartment model of WinNonlin.

| Structure (SMILES) | IC50 [1] | IC50 [2] | Tmax ([3]; n = 3) | AUC(0-inf) ([3]; n = 3, mean ± s.e.m.) | Cmax ([3]; n = 3, mean ± s.e.m.) | half-life ([3]; n = 3, mean ± s.e.m., read-out: T½ eli (converted)) |
| --- | --- | --- | --- | --- | --- | --- |
| CCCCS(=O)(=O)N[C@@H](Cc1ccc(OCCCCC2CCNCC2)cc1)C(=O)O [tirofiban] | 30 to 60 nM | 30 to 60 nM | – | – | – | – |
| CO[C@H]1O[C@H](COS(=O)(=O)O)[C@@H](O[C@@H]2O[C@@H](C(=O)O)[C@@H](O[C@H]3O[C@H](COS(=O)(=O)O)[C@@H](O[C@@H]4O[C@H](C(=O)O)[C@@H](O[C@H]5O[C@H](COS(=O)(=O)O)[C@@H](OCCOCCOCCOCCNC(=O)COCCOCCOCCOCCNC(=O)c6cccc(S(=O)(=O)N[C@@H](Cc7ccc(OCCCCC8CCNCC8)cc7)C(=O)O)c6)[C@H](OC)[C@H]5OC)[C@H](OC)[C@H]4OC)[C@H](OS(=O)(=O)O)[C@H]3OS(=O)(=O)O)[C@H](OC)[C@H]2OC)[C@H](OS(=O)(=O)O)[C@H]1OS(=O)(=O)O [Compound 3, sodium salt] | – | – | 2.5 h | 75.3 ± 3.2 µM·h | 5 ± 0.4 µM | 9.3 ± 0.2 h |
